Assays:
CK2α kinase [1] = molecular target: T1, CK2α kinase (Homo sapiens, UniProt P68400); test: Sedimentation velocity AUC, CK2α / RAD-CK2β; assay type: binding; conditions: 20°C, 20 mM HEPES pH 7.5, 500 mM NaCl
T1 construct: made in house; host or cells: E. coli BL21(DE3) with pUBS520; pBAT4 plasmid
T1 sequence (P68400 2-329): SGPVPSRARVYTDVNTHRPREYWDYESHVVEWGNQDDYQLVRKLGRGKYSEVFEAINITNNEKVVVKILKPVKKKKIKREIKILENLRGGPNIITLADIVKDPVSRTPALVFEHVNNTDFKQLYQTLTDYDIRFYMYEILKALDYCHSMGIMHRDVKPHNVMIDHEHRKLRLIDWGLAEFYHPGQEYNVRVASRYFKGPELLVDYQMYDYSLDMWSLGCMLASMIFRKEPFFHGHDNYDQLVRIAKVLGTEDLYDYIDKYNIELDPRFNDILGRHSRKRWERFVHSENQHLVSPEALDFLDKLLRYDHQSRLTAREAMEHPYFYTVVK

CK2α kinase [2] = molecular target: T1, CK2α kinase; test: Analytical SEC, CK2α / RAD-CK2β; assay type: binding; conditions: Superdex 75 5/150, 20 mM HEPES pH 7.5, 500 mM NaCl, calibrated
Experimental: Purified protein samples, either as individual proteins or equimolar mixtures, were separated by analytical SEC over an Superdex 75 5/150 size exclusion column (GE Healthcare) equilibrated with 20 mM HEPES pH 7.5, 500 mM NaCl. Fractions from the peaks from each run were analyzed by SDS-PAGE with purified proteins as standards. The column was calibrated using molecular weight standards (blue dextran, bovine serum albumin, carbonic anhydrase, cytochrome C and aprotonin, Sigma-Aldrich cat. MWGF70) and the calibration curve used to estimate the molecular weights of the three samples (Fig. S5).
Figure S5. MW estimation of CK2α, RAD-CK2β(186-200) and their complexes by SEC Calibration Superdex 75 5/150 HR column
Figure S5. Molecular weight protein standards (Sigma -Aldrich, cat. no. MWGF70, gray diamonds in the plot) were used to calibrate Superdex 75 5/150 column. Blue dextran was used to define the void volume (1.24 ml)and total volume was assumed to be […]. Elution positions of CK2α,(blue […]
main article, were used to estimate the molecular weights of the proteins from the calibration curve. […]

B1: CK2α kinase: Human CK2α kinase (residues 2-329) (protein)
chain: T1 sequence (P68400 2-329)
Sedimentation coefficient (s-value) (CK2α kinase [1]; SV AUC, 50 000 rpm, 280 nm, CK2α 6 μM, RAD-CK2β 14.3 μM, complex 5 μM each): 3.0 S
Molar mass from SV AUC (CK2α kinase [1]; boundary spreading): 41.5 kDa
Molecular weight equivalent of SEC elution volume (CK2α kinase [2]): 45.7 kDa
